Values quoted from earlier work in patent publication US20240247069A1, “FGFR3 BINDING MOLECULES AND METHODS OF USE THEREOF” (Regeneron Pharmaceuticals, Inc., priority 2023, published 2024).
Where two headings read alike, the source gives them in different places.

Tested on: FGFR3
[1] = Table T-3, exemplary FGFR3 D3 binding sequences from cited PCT publications
[2] = literature antibodies, sequences from cited PCT publications

Molecule	Activity [1]	Activity [2]
KE94: anti-FGFR3 IIIb and IIIc antibody of WO 2022/040560 A1; VH SEQ ID NO:82, VL SEQ ID NO:83 (antibody, V domains shown) VH: QVQLQQSGAELVRPGASVTLSCKASGSTFTDFEIHWVKQTPVHGLEWIGAIDPETGGTAYNQKFKGKAILTAVKSSSTAYMGLRSLTSEDSAVYYCTRNYDGYSRTMDYWGQGTSVTVSS VL: NIMMTQSPSSLAVSAGEKVTMSCKSSQSVLYSSNQKNYLAWYQQKPGQSPKLLIYWASTRESGVPDRFTGSGSGTDFSLSISSVQTEDLAVYYCHQYLSSYTFGGGTRLEMK	Antagonistic	Antagonistic
KE58: anti-FGFR3 IIIb and IIIc antibody of WO 2022/040560 A1; VH SEQ ID NO:78, VL SEQ ID NO:79 (antibody, V domains shown) VH: EVQLQQSGPDLVKPGASVKISCKASGYTVTDYYMNWVKQSHGKSLEWIGDINPNNGVTTYNQKFKDKATLTVDKSSSTAYMELRSLTSEDSAVYYCAREEDFDGFDYWGQGTTLTVSS VL: DIVMTQSHKFMSTSVGDRVSITCKASQDVSTGVAWYQQKPGQSPQLLIYWASTRHTGVPDRFTGSGSGTDYILTIRSVQAEDLALYYCQQHYSTPLTFGAGTKLELK	Antagonistic	Antagonistic
KC18: anti-FGFR3 IIIb and IIIc antibody of WO 2022/040560 A1; VH SEQ ID NO:72, VL SEQ ID NO:73 (antibody, V domains shown) VH: QVQLQQSGAELVRPGASVTLSCKASGDTFTDFEIHWVKQTPVHGLEWIGDIDPETGGTAYNQKFRGRAMLTADRSSSTAYMELRSLTSEDSAVYYCTRTYDGYPYAMDYWGQGTSVTVSS VL: DIVMSQSPSSLAVSVGEKVTMSCKSSQSLLYSNNQKNYLAWYQQKPGQSPKLLIYWASTRESGVPDRFTGSGSGTDFTLTISSVKAEDLAVYYCQQYYSYRTFGGGTKLEIK	Antagonistic	Antagonistic
KE63: anti-FGFR3 IIIb and IIIc antibody of WO 2022/040560 A1; VH SEQ ID NO:80, VL SEQ ID NO:81 (antibody, V domains shown) VH: QVQLQQSGAELVRPGASVTLSCKASGSTFSDFEIHWVKQTPVHGLEWIGGIDPETGGTAYNQKFKGKAILTADRSSSTAYMELRSLTSEDSAVYYCTRNYDGYSQTMDYWGQGTSVTVSS VL: NIMMTQSPSSLAVSAGEKVTMSCKSSQSVLYSSNQKNYLAWYQQKPGQSPKLLIYWASTRESGVPDRFTGSGSGTDFTLTISSVQAEDLAVYYCHQYLSSYTFGGGTKLEMK	Antagonistic	Antagonistic
FGA0005: anti-FGFR3 (S249C mutant) antibody of WO 2021/010326 A1; VH SEQ ID NO:86, VL SEQ ID NO:87 (antibody, V domains shown) VH: QSLEESGGRLVTPGTPLTLTCTASGFSLSTYWICWVRQAPGEGLEWIGYISSSGNTYYASWAKGRFTISKTSSTTVDLKMTSLTTEDTATYFCGGHNSDYITGWALDPWGPGTLVTVSS VL: AAVLTQTASPMSAAVGGTVTINCQSSKSVYRDKWLSWFQQKPGQPPKLLIYGASNLASGVSSRFKGSGSGTQFTLTISDVQCDDAATYYCLGGYSDNSEDAFGGGTEVVVK		Antagonistic
KE35: anti-FGFR3 IIIb and IIIc antibody of WO 2022/040560 A1; VH SEQ ID NO:74, VL SEQ ID NO:75 (antibody, V domains shown) VH: EVQLQQSGPELVKPGASVKMSCKASGYTFTDYNMHWVKQSHGKSLEWIGYINPNNGGTRYNQKFKGKATLTVNKSSSTAYMELRSLTSEDSAVYYCARERDYDGAMDYWGQGTSVTVSS VL: DIQMTQSPSSLSASLGGKVTITCKASQDINKFIAWYQHKPGKGPRLLIHYTSTLQPGIPSRFSGSGSGRDYSFSISNLEPEDIATYYCLQYDNLLWTFGGGTKLEIK	Antagonistic	Antagonistic
KE42: anti-FGFR3 IIIb and IIIc antibody of WO 2022/040560 A1; VH SEQ ID NO:76, VL SEQ ID NO:77 (antibody, V domains shown) VH: EVQLQQSGPELVKPGASVKMSCKASGYTFTDYNMHWVKQSHGKSLQWIGYINPNNGGTNYNQNFKDKATLTVNKSSTTAYMELRSLTSEDSAVYYCARERDYDGSMDFWGQGTSVTVSS VL: DIQMTQSPSSLSASLGGKVTITCKASQDINKFIAWYQHKPGKGPRLLIHYTSTLQPGIPSRFSGSGSGRDYSFSISNLEPEDIATYFCLQYDNLLWTFGGGTKLEIK	Antagonistic	Antagonistic
MS-Pro-11: anti-FGFR3 Ig-like domain 3 antibody of WO 2002/102972 A2; VH SEQ ID NO:30, VL SEQ ID NO:31 (antibody, V domains shown) VH: QVQLVQSGAEVKKPGASVKVSCKASGYTFTSYYMHWVRQAPGQGLEWMGWINPNSGGTNYAQKFQGRVTMTRDTSISTAYMELSSLRSEDTAVYYCARYYGSSLYHYVFGGFIDYWGQGTLVTVSS VL: DIALTQPASVSGSPGQSITISCTGTSSDVGGYNYVSYQQHPGKAPKLMIYDVSNRPSGVSNRFSGSKSGNTASLTISGLQAEDEADYYCQSHHFYEVFGGGTKLTVLGQ	Antagonistic	Antagonistic
MS-Pro-59: anti-FGFR3 Ig-like domain 3 antibody of WO 2002/102972 A2; VH SEQ ID NO:28, VL SEQ ID NO:29 (antibody, V domains shown) VH: QVQLQQSGPGLVKPSQTLSLTCAISGDSVSSNSAAWNWIRQSPGRGLEWLGRTYYRSKWYNDYAVSVKSRITINDTSKNQFSLQLNSVTPEDTAVYYCARSYYPDFDYWGQGTVTVSS VL: DIELTQPPSVSVAPGQTARISCSGDALGDKYASWYQQKPGQAPVLVIYDDSDRPSGIPERFSGSNSGNTATLTISGTQAEDEADYYCQSYDGPDLWVFGGGTKLTVLGQ	Antagonistic	Antagonistic
FGA0002: anti-FGFR3 (S249C mutant) antibody of WO 2021/010326 A1; VH SEQ ID NO:84, VL SEQ ID NO:85 (antibody, V domains shown) VH: QELVESGGGLVQPGGSLKLSCKASGIDFSSYGISWVRQAPGKGLEWIAYIVPGFGIRNYANSVKGRFTISSDNAQNTVFLQMTSLTASDTATYFCARVPQYASSSGYYLPFNLWGPGTLVTVSS VL: ALVMTQTPSPVSAAVGGTVTINCQASEDIYYNLAWFQQKPGQPPKLLIYRASTLASGVPSRFSGSGSGTEFTLTISDVQCDDAATYYCLGVYTYISADGNAFGGGTEVVVK		Antagonistic
184.6.1.N54S: anti-FGFR3 Ig-like domain 3 antibody of WO 2010/111367 A1; VH SEQ ID NO:63, VL SEQ ID NO:64 (antibody, V domains shown) VH: EVQLVESGGGLVQPGGSLRLSCAASGFTFTSTGISWVRQAPGKGLEWVGRIYPTSGSTNYADSVKGRFTISADTSKNTAYLQMNSLRAEDTAVYYCARARTYGIYDLYVDYTEYVMDYWGQGTLV VL: DIQMTQSPSSLSASVGDRVTITCRASQDVDTSLAWYQQKPGKAPKLLIYSASFLYSGVPSRFSGSGSGTDFTLTISSLQPEDFATYYCQQSTGHPQTFGQGTKVEIKR	Antagonistic	Antagonistic
184.6.62: anti-FGFR3 Ig-like domain 3 antibody of WO 2010/111367 A1; VH SEQ ID NO:67, VL SEQ ID NO:68 (antibody, V domains shown) VH: EVQLVESGGGLVQPGGSLRLSCAASGFTFSTTGISWVRQAPGKGLEWVARIYPLYGSTHYADSVKGRFTISADTSKNTAYLQMNSLRAEDTAVYYCARARTYGIYDLYVDYTEYVMDYWGQGTLV VL: DIQMTQSPSSLSASVGDRVTITCRASQDVSTAVAWYQQKPGKAPKLLIYSASFLYSGVPSRFSGSGSGTDFTLTISSLQPEDFATYYCQQTYTTSLTFGQGTKVEIKR	Antagonistic	Antagonistic
184.6.1.NS D30E: anti-FGFR3 Ig-like domain 3 antibody of WO 2010/111367 A1; VH SEQ ID NO:63, VL SEQ ID NO:69 (antibody, V domains shown) VH: EVQLVESGGGLVQPGGSLRLSCAASGFTFTSTGISWVRQAPGKGLEWVGRIYPTSGSTNYADSVKGRFTISADTSKNTAYLQMNSLRAEDTAVYYCARARTYGIYDLYVDYTEYVMDYWGQGTLV VL: DIQMTQSPSSLSASVGDRVTITCRASQDVETSLAWYQQKPGKAPKLLIYSASFLYSGVPSRFSGSGSGTDFTLTISSLQPEDFATYYCQQSTGHPQTFGQGTKVEIKR	Antagonistic	Antagonistic
B-701: anti-FGFR3 antibody of WO 2016/134234 A1; VH SEQ ID NO:70, VL SEQ ID NO:71 (antibody, V domains shown) VH: EVQLVESGGGLVQPGGSLRLSCAASGFTFTSTGISWVRQAPGKGLEWVGRIYPTSGSTNYADSVKGRFTISADTSKNTAYLQMNSLRAEDTAVYYCARTYGIYDLYVDYTEYVMDYWGQGTLV VL: DIQMTQSPSSLSASVGDRVTITCRASQDVDTSLAWYKQKPGKAPKLLIYSASFLYSGVPSRFSGSGSGTDFTLTISSLQPEDFATYYCQQSTGHPQTFGQGTKVEIKR		Antagonistic
184.6.58: anti-FGFR3 Ig-like domain 3 antibody of WO 2010/111367 A1 (aka R3Mab); VH SEQ ID NO:65, VL SEQ ID NO:66; comparator REGN6331 (antibody, V domains shown, anti-FGFR3 Ig-like domain 3 antibody of WO 2010/111367 A1 (aka R3Mab); comparator REGN6331) VH: EVQLVESGGGLVQPGGSLRLSCAASGFTFTSTGISWVRQAPGKGLEWVARIYPTNGSTNYADSVKGRFTISADTSKNTAYLQMNSLRAEDTAVYYCARARTYGIYDLYVDYTEYVMDYWGQGTLV VL: DIQMTQSPSSLSASVGDRVTITCRASQDVDISLAWYQQKPGKAPKLLIYSASFLYSGVPSRFSGSGSGTDFTLTISSLQPEDFATYYCQQGAGNPYTFGQGTKVEIKR	Antagonistic	Antagonistic
